In article doi:10.1101/379156, “Probing the Modularity of Megasynthases by Rational Engineering of a Fatty Acid Synthase (FAS) Type I” (bioRxiv, 2018):

Molecular target: the molecule itself
Test: SEC; as a1, but samples not incubated at 37 °C before the SEC run; monomer to dimer

B1: mFAS gamma-module, construct 7 (2-1517+1870-2195) (domain or fragment, Mus musculus, UniProt P19096 2-2195, looked up)
chain: EEVVIAGMSGKLPESENLQEFWANLIGGVDMVTDDDRRWKAGLYGLPKRSGKLKDLSKFDASFFGVHPKQAHTMDPQLRLLLEVSYEAIVDGGINPASLRGTNTGVWVGVSGSEASEALSRDPETLLGYSMVGCQRAMMANRLSFFFDFKGPSIALDTACSSSLLALQNAYQAIRSGECPAALVGGINLLLKPNTSVQFMKLGMLSPDGTCRSFDDSGSGYCRSEAVVAVLLTKKSLARRVYATILNAGTNTDGSKEQGVTFPSGEVQEQLICSLYQPAGLAPESLEYIEAHGTGTKVGDPQELNGITRSLCAFRQAPLLIGSTKSNMGHPEPASGLAALTKVLLSLEHGVWAPNLHFHNPNPEIPALLDGRLQVVDRPLPVRGGNVGINSFGFGGSNVHVILQPNTRQAPAPTAHAALPHLLHASGRTLEAVQDLLEQGRQHSQDLAFVSMLNDIAATPTAAMPFRGYTVLGVEGRVQEVQQVSTNKRPLWFICSGMGTQWRGMGLSLMRLDSFRESILRSDEAVKPLGVKVSDLLLSTDERTFDDIVHAFVSLTAIQIALIDLLTSVGLKPDGIIGHSLGEVACGYADGCLSQREAVLAAYWRGQCIKDAHLPPGSMAAVGLSWEECKQRCPAGVVPACHNSEDTVTISGPQAAVNEFVEQLKQEGVFAKEVRTGGLAFHSYFMEGIAPTLLQALKKVIREPRPRSARWLSTSIPEAQWQSSLARTSSAEYNVNNLVSPVLFQEALWHIPEHAVVLEIAPHALLQAVLKRGVKSSCTIIPLMKRDHKDNLEFFLTNLGKVHLTGINVNPNALFPPVEFPAPRGTPLISPHIKWDHSQTWDVPVAEDFPNGSSSSSATVYSIDASPESPDHYLVDHCIDGRVIFPGTGYLCLVWKTLARSLGLSLEETPVVFENVSFHQATILPKTGTVALEVRLLEASHAFEVSDTGNLIVSGKVYLWEDPNSKLFDHPEVPTPPESASVSRLTQGEVYKELRLRGYDYGPQFQGICEATLEGEQGKLLWKDNWVTFMDTMLQVSILGSSQQSLQLPTRVTAIYIDPATHRQKVYRLKEDTQVADVTTSRCLGITVSGGIHISRLQTTATSRRQQEQLVPTLEKFVFTPHMEAECLSESTALQKELQLCKGLARALQTKATQQGLKAAMLGQEDPPQHGLPRLLAAACQLQLNGNLQLELGEALAQERLLLPEDPLISGLLNSQALKACVDTALENLSTLKMKVAEVLAGEGHLYSRIPALLNTQPMLQLEYTATDRHPQALKDVQTKLQQHDVAQGQWNPSDPAPSSLGALDLLVCNCALATLGDPALALDNMVAALKEGGFLLVHTVLKGHALGETLACLPSEVQPAPSLLSQEEWESLFSRKALHLVGLKRSFYGTALFLCRRAIPQEKPIFLSVEDTSFQWVDSLKSTLATSSSQPVWLTAMDCPTSGVVGLVNCLRKEPGGHRIRCILLSNLSNTSHAPKLDPGSPELQQVLKHDLVMNVYRDGAWGAFRHFQLEQDKPSKTFCPAHKSYIITGGLGGFGLELARWLVLRGAQRLVLTSRSGIRTGYQAKHIREWRRQGIQVLVSTSNVSSLEGARALIAEATKLGPVGGVFNLAMVLRDAMLENQTPELFQDVNKPKYNGTLNLDRATREACPELDYFVAFSSVSCGRGNAGQTNYGFANSTMERICEQRRHDGLPGLAVQWGAIGDVGIVLEAMGTNDTVIGGTLPQRISSCMEVLDLFLNQPHAVLSSFVLAEKKAVAHGDGDTQRDLVKAVAHILGIRDLAGINLDSTLADLGLDSLMGVEVRQILEREHDLVLPMREVRQLTLRKLQEMSSKTDSATDTT
notes: murine fatty acid synthase 2-2195 with the ER domain deleted (P1517 bridged to S1870); Made from construct 6 as template; also called γ-module
stoichiometry N: 2

B2: mFAS beta-module, construct 8 (2-858+1104-1517+1870-2195) (domain or fragment, Mus musculus, UniProt P19096 2-2195, looked up)
chain: EEVVIAGMSGKLPESENLQEFWANLIGGVDMVTDDDRRWKAGLYGLPKRSGKLKDLSKFDASFFGVHPKQAHTMDPQLRLLLEVSYEAIVDGGINPASLRGTNTGVWVGVSGSEASEALSRDPETLLGYSMVGCQRAMMANRLSFFFDFKGPSIALDTACSSSLLALQNAYQAIRSGECPAALVGGINLLLKPNTSVQFMKLGMLSPDGTCRSFDDSGSGYCRSEAVVAVLLTKKSLARRVYATILNAGTNTDGSKEQGVTFPSGEVQEQLICSLYQPAGLAPESLEYIEAHGTGTKVGDPQELNGITRSLCAFRQAPLLIGSTKSNMGHPEPASGLAALTKVLLSLEHGVWAPNLHFHNPNPEIPALLDGRLQVVDRPLPVRGGNVGINSFGFGGSNVHVILQPNTRQAPAPTAHAALPHLLHASGRTLEAVQDLLEQGRQHSQDLAFVSMLNDIAATPTAAMPFRGYTVLGVEGRVQEVQQVSTNKRPLWFICSGMGTQWRGMGLSLMRLDSFRESILRSDEAVKPLGVKVSDLLLSTDERTFDDIVHAFVSLTAIQIALIDLLTSVGLKPDGIIGHSLGEVACGYADGCLSQREAVLAAYWRGQCIKDAHLPPGSMAAVGLSWEECKQRCPAGVVPACHNSEDTVTISGPQAAVNEFVEQLKQEGVFAKEVRTGGLAFHSYFMEGIAPTLLQALKKVIREPRPRSARWLSTSIPEAQWQSSLARTSSAEYNVNNLVSPVLFQEALWHIPEHAVVLEIAPHALLQAVLKRGVKSSCTIIPLMKRDHKDNLEFFLTNLGKVHLTGINVNPNALFPPVEFPAPRGTPLISPHIKWDHSQTWDVPVAEDFPNGSSSSSSRRQQEQLVPTLEKFVFTPHMEAECLSESTALQKELQLCKGLARALQTKATQQGLKAAMLGQEDPPQHGLPRLLAAACQLQLNGNLQLELGEALAQERLLLPEDPLISGLLNSQALKACVDTALENLSTLKMKVAEVLAGEGHLYSRIPALLNTQPMLQLEYTATDRHPQALKDVQTKLQQHDVAQGQWNPSDPAPSSLGALDLLVCNCALATLGDPALALDNMVAALKEGGFLLVHTVLKGHALGETLACLPSEVQPAPSLLSQEEWESLFSRKALHLVGLKRSFYGTALFLCRRAIPQEKPIFLSVEDTSFQWVDSLKSTLATSSSQPVWLTAMDCPTSGVVGLVNCLRKEPGGHRIRCILLSNLSNTSHAPKLDPGSPELQQVLKHDLVMNVYRDGAWGAFRHFQLEQDKPSKTFCPAHKSYIITGGLGGFGLELARWLVLRGAQRLVLTSRSGIRTGYQAKHIREWRRQGIQVLVSTSNVSSLEGARALIAEATKLGPVGGVFNLAMVLRDAMLENQTPELFQDVNKPKYNGTLNLDRATREACPELDYFVAFSSVSCGRGNAGQTNYGFANSTMERICEQRRHDGLPGLAVQWGAIGDVGIVLEAMGTNDTVIGGTLPQRISSCMEVLDLFLNQPHAVLSSFVLAEKKAVAHGDGDTQRDLVKAVAHILGIRDLAGINLDSTLADLGLDSLMGVEVRQILEREHDLVLPMREVRQLTLRKLQEMSSKTDSATDTT
notes: murine fatty acid synthase 2-2195 with the DH domain (S858 linked with S1104) and the ER domain (P1517 bridged to S1870) deleted; Made from construct 7; also called β-module
stoichiometry N: 2
